The Human Domainome abundance scans (Beltran et al. 2025)
± gives the uncertainty stated by the source.

Experiment: abundance fitness (aPCA) (normalised: wild type 0, dead -1); higher = more abundant; growth selection in yeast, the domain comes from the species named
Details: Homo sapiens

First: SAFB-like transcription modulator L48N, Q9NWH9
Second: SAFB-like transcription modulator K35P, Q9NWH9
The abundance fitness of the first is higher: -0.489 ± 0.043 for the first, -0.943 ± 0.14 for the second.

Compared with “SAFB-like transcription modulator I49E, Q9NWH9”, “SAFB-like transcription modulator L25S, Q9NWH9” is lower in abundance fitness: -0.056 ± 0.071 for the first, -0.745 ± 0.077 for the second.

“BAG family molecular chaperone regulator 3 P24F, O95817” and “SAFB-like transcription modulator I66L, Q9NWH9” are within error of each other in abundance fitness: -0.383 ± 0.31 for the first, -0.268 ± 0.094 for the second.

“BAG family molecular chaperone regulator 3 Q11H, O95817” and “SAFB-like transcription modulator S50D, Q9NWH9” are within error of each other in abundance fitness: -0.246 ± 0.26 for the first, -0.109 ± 0.065 for the second.

“SAFB-like transcription modulator K45N, Q9NWH9” and “BAG family molecular chaperone regulator 3 S56A, O95817” are within error of each other in abundance fitness: -0.334 ± 0.086 for the first, -0.146 ± 0.12 for the second.

“BAG family molecular chaperone regulator 3 D31Q, O95817” and “SAFB-like transcription modulator K21T, Q9NWH9” are within error of each other in abundance fitness: -0.557 ± 0.22 for the first, -0.355 ± 0.064 for the second.

First: SAFB-like transcription modulator I41T, Q9NWH9
Second: SAFB-like transcription modulator I56F, Q9NWH9
The abundance fitness of the first is higher: -0.337 ± 0.079 for the first, -0.898 ± 0.21 for the second.

“SAFB-like transcription modulator I22Y, Q9NWH9” and “BAG family molecular chaperone regulator 3 P23Q, O95817” are within error of each other in abundance fitness: -0.531 ± 0.085 for the first, -0.83 ± 0.33 for the second.

First: SAFB-like transcription modulator Q54P, Q9NWH9
Second: BAG family molecular chaperone regulator 3 P21S, O95817
The abundance fitness of the first is lower: -0.666 ± 0.3 for the first, 0.349 ± 0.089 for the second.

First: SAFB-like transcription modulator E67V, Q9NWH9
Second: SAFB-like transcription modulator L30C, Q9NWH9
The abundance fitness of the first is higher: -0.042 ± 0.037 for the first, -0.497 ± 0.083 for the second.

Going from “BAG family molecular chaperone regulator 3 Q33E, O95817” to “SAFB-like transcription modulator K45P, Q9NWH9”, the abundance fitness falls from 0.11 ± 0.064 to -0.194 ± 0.077.

First: BAG family molecular chaperone regulator 3 G17S, O95817
Second: SAFB-like transcription modulator L52P, Q9NWH9
The abundance fitness of the first is higher: 0.82 ± 0.073 for the first, -0.467 ± 0.12 for the second.

“SAFB-like transcription modulator R26P, Q9NWH9” and “BAG family molecular chaperone regulator 3 S56N, O95817” are within error of each other in abundance fitness: -0.126 ± 0.14 for the first, 0.103 ± 0.19 for the second.

“SAFB-like transcription modulator L25E, Q9NWH9” and “SAFB-like transcription modulator G61R, Q9NWH9” are within error of each other in abundance fitness: -0.308 ± 0.1 for the first, -0.227 ± 0.042 for the second.

“BAG family molecular chaperone regulator 3 V40G, O95817” and “BAG family molecular chaperone regulator 3 D31N, O95817” are within error of each other in abundance fitness: -0.541 ± 0.087 for the first, -0.813 ± 0.26 for the second.

First: BAG family molecular chaperone regulator 3 D20M, O95817
Second: BAG family molecular chaperone regulator 3 D31L, O95817
The abundance fitness of the first is higher: 0.365 ± 0.15 for the first, -0.732 ± 0.1 for the second.

First: SAFB-like transcription modulator L34K, Q9NWH9
Second: SAFB-like transcription modulator V44W, Q9NWH9
The abundance fitness of the first is lower: -0.864 ± 0.078 for the first, -0.358 ± 0.055 for the second.

“BAG family molecular chaperone regulator 3 W26S, O95817” and “SAFB-like transcription modulator L48H, Q9NWH9” are within error of each other in abundance fitness: -0.381 ± 0.12 for the first, -0.52 ± 0.059 for the second.

“BAG family molecular chaperone regulator 3 S56F, O95817” and “SAFB-like transcription modulator T23N, Q9NWH9” are within error of each other in abundance fitness: -0.205 ± 0.13 for the first, -0.066 ± 0.035 for the second.

Compared with “SAFB-like transcription modulator E67L, Q9NWH9”, “SAFB-like transcription modulator D40Q, Q9NWH9” is lower in abundance fitness: -0.134 ± 0.035 for the first, -0.486 ± 0.12 for the second.

“BAG family molecular chaperone regulator 3 T46Y, O95817” and “SAFB-like transcription modulator D64V, Q9NWH9” are within error of each other in abundance fitness: -0.358 ± 0.33 for the first, -0.317 ± 0.045 for the second.

First: SAFB-like transcription modulator L68M, Q9NWH9
Second: BAG family molecular chaperone regulator 3 E57S, O95817
The abundance fitness of the first is lower: -0.188 ± 0.061 for the first, -0.001 ± 0.11 for the second.

First: BAG family molecular chaperone regulator 3 P55Y, O95817
Second: SAFB-like transcription modulator E33R, Q9NWH9
The abundance fitness of the first is higher: -0.018 ± 0.29 for the first, -0.961 ± 0.077 for the second.

Going from “SAFB-like transcription modulator G60A, Q9NWH9” to “BAG family molecular chaperone regulator 3 G15V, O95817”, the abundance fitness rises from -0.317 ± 0.047 to 0.89 ± 0.078.

First: SAFB-like transcription modulator Q54W, Q9NWH9
Second: BAG family molecular chaperone regulator 3 S14G, O95817
The abundance fitness of the first is higher: -0.043 ± 0.08 for the first, -0.641 ± 0.1 for the second.

First: BAG family molecular chaperone regulator 3 V12I, O95817
Second: SAFB-like transcription modulator I66A, Q9NWH9
The abundance fitness of the first is higher: 0.446 ± 0.11 for the first, -0.552 ± 0.15 for the second.

First: SAFB-like transcription modulator K20D, Q9NWH9
Second: SAFB-like transcription modulator E67H, Q9NWH9
The abundance fitness of the first is lower: -0.413 ± 0.11 for the first, -0.107 ± 0.15 for the second.

“BAG family molecular chaperone regulator 3 E57R, O95817” and “SAFB-like transcription modulator K20Y, Q9NWH9” are within error of each other in abundance fitness: -0.119 ± 0.081 for the first, -0.454 ± 0.3 for the second.

Compared with “BAG family molecular chaperone regulator 3 L22S, O95817”, “BAG family molecular chaperone regulator 3 G15D, O95817” is higher in abundance fitness: -0.574 ± 0.11 for the first, 1.2 ± 0.092 for the second.

“BAG family molecular chaperone regulator 3 E27C, O95817” and “BAG family molecular chaperone regulator 3 P55D, O95817” are within error of each other in abundance fitness: -0.789 ± 0.39 for the first, -0.281 ± 0.39 for the second.

“BAG family molecular chaperone regulator 3 D51C, O95817” and “BAG family molecular chaperone regulator 3 D20C, O95817” are within error of each other in abundance fitness: -0.48 ± 0.22 for the first, -0.2 ± 0.11 for the second.

Compared with “SAFB-like transcription modulator K53A, Q9NWH9”, “SAFB-like transcription modulator P63E, Q9NWH9” is lower in abundance fitness: 0.006 ± 0.071 for the first, -0.337 ± 0.058 for the second.

First: BAG family molecular chaperone regulator 3 K29Q, O95817
Second: SAFB-like transcription modulator N65L, Q9NWH9
The abundance fitness of the first is lower: -0.711 ± 0.28 for the first, -0.206 ± 0.035 for the second.

Compared with “BAG family molecular chaperone regulator 3 P21R, O95817”, “SAFB-like transcription modulator P63R, Q9NWH9” is lower in abundance fitness: 0.382 ± 0.081 for the first, -0.478 ± 0.053 for the second.

“SAFB-like transcription modulator D24R, Q9NWH9” and “BAG family molecular chaperone regulator 3 D41Q, O95817” are within error of each other in abundance fitness: -0.335 ± 0.033 for the first, -0.364 ± 0.32 for the second.

First: BAG family molecular chaperone regulator 3 W36K, O95817
Second: SAFB-like transcription modulator L68Q, Q9NWH9
The abundance fitness of the first is higher: 1.09 ± 0.12 for the first, -0.14 ± 0.075 for the second.

“SAFB-like transcription modulator D29T, Q9NWH9” and “BAG family molecular chaperone regulator 3 R19W, O95817” are within error of each other in abundance fitness: -0.509 ± 0.12 for the first, -0.342 ± 0.073 for the second.

Going from “BAG family molecular chaperone regulator 3 E27W, O95817” to “SAFB-like transcription modulator I49L, Q9NWH9”, the abundance fitness rises from -0.988 ± 0.48 to -0.075 ± 0.045.

“BAG family molecular chaperone regulator 3 V54I, O95817” and “BAG family molecular chaperone regulator 3 R53S, O95817” are within error of each other in abundance fitness: -0.335 ± 0.13 for the first, -0.523 ± 0.18 for the second.

Going from “SAFB-like transcription modulator E58A, Q9NWH9” to “BAG family molecular chaperone regulator 3 I28L, O95817”, the abundance fitness falls from -0.026 ± 0.06 to -0.444 ± 0.17.

Compared with “BAG family molecular chaperone regulator 3 V54G, O95817”, “BAG family molecular chaperone regulator 3 V40T, O95817” is lower in abundance fitness: -0.07 ± 0.077 for the first, -0.959 ± 0.24 for the second.

First: SAFB-like transcription modulator L30Y, Q9NWH9
Second: BAG family molecular chaperone regulator 3 P24S, O95817
The abundance fitness of the first is lower: -1 ± 0.13 for the first, 0.456 ± 0.099 for the second.

First: BAG family molecular chaperone regulator 3 G15N, O95817
Second: SAFB-like transcription modulator T23I, Q9NWH9
The abundance fitness of the first is higher: 1.04 ± 0.089 for the first, -0.019 ± 0.033 for the second.

Going from “BAG family molecular chaperone regulator 3 G25C, O95817” to “SAFB-like transcription modulator D64I, Q9NWH9”, the abundance fitness rises from -0.74 ± 0.17 to -0.28 ± 0.072.

“SAFB-like transcription modulator L48C, Q9NWH9” and “BAG family molecular chaperone regulator 3 F39R, O95817” are within error of each other in abundance fitness: -0.51 ± 0.042 for the first, -0.618 ± 0.068 for the second.

Compared with “SAFB-like transcription modulator L68W, Q9NWH9”, “BAG family molecular chaperone regulator 3 G35Q, O95817” is higher in abundance fitness: -0.181 ± 0.052 for the first, 0.41 ± 0.11 for the second.

First: SAFB-like transcription modulator I41R, Q9NWH9
Second: SAFB-like transcription modulator D62I, Q9NWH9
The abundance fitness of the first is higher: -0.202 ± 0.066 for the first, -0.339 ± 0.049 for the second.

Compared with “SAFB-like transcription modulator V44P, Q9NWH9”, “BAG family molecular chaperone regulator 3 P55W, O95817” is lower in abundance fitness: 0.014 ± 0.049 for the first, -0.508 ± 0.28 for the second.

Work on “BAG family molecular chaperone regulator 3 R53T, O95817” yielded an abundance fitness of -0.225 ± 0.25.
